Reference: patent US20240270860A1

Experiments:
[1] = molecular target: T1, 2LS2…2RPGW; test: peptide-array ELISA (CYS.S)
T1 sequence (peptide, 2 = Cys(ACM)): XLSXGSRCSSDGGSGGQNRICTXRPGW

[2] = molecular target: T2, 2LS2…2RPG; test: peptide-array ELISA (CYS.S)
T2 sequence (peptide, 2 = Cys(ACM)): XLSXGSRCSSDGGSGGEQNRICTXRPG

[3] = molecular target: T3, 2LS2…2RP; test: peptide-array ELISA (CYS.S)
T3 sequence (peptide, 2 = Cys(ACM)): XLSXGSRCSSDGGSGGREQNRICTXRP

[4] = molecular target: T4, 2…2RPGW; test: peptide-array ELISA (CYS.S)
T4 sequence (peptide, 2 = Cys(ACM)): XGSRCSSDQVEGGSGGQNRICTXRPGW

[5] = molecular target: T5, 2…2RPG; test: peptide-array ELISA (CYS.S)
T5 sequence (peptide, 2 = Cys(ACM)): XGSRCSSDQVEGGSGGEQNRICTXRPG

[6] = molecular target: T6, 2…2RP; test: peptide-array ELISA (CYS.S)
T6 sequence (peptide, 2 = Cys(ACM)): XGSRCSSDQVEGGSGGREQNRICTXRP

[7] = molecular target: T7, E2LS2…2RPGW; test: peptide-array ELISA (CYS.S)
T7 sequence (peptide, 2 = Cys(ACM)): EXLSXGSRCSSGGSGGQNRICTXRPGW

[8] = molecular target: T8, E2LS2…2RPG; test: peptide-array ELISA (CYS.S)
T8 sequence (peptide, 2 = Cys(ACM)): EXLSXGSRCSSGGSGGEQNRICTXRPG

[9] = molecular target: T9, E2LS2…2RP; test: peptide-array ELISA (CYS.S)
T9 sequence (peptide, 2 = Cys(ACM)): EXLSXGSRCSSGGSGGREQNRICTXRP

[10] = molecular target: T10, LS2…2RPGW; test: peptide-array ELISA (CYS.S)
T10 sequence (peptide, 2 = Cys(ACM)): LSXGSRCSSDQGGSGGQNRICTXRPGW

[11] = molecular target: T11, LS2…2RPG; test: peptide-array ELISA (CYS.S)
T11 sequence (peptide, 2 = Cys(ACM)): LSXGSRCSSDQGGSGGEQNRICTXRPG

[12] = molecular target: T12, LS2…2RP; test: peptide-array ELISA (CYS.S)
T12 sequence (peptide, 2 = Cys(ACM)): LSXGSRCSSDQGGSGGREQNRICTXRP

[13] = molecular target: T13, PE2LS2…2RPGW; test: peptide-array ELISA (CYS.S)
T13 sequence (peptide, 2 = Cys(ACM)): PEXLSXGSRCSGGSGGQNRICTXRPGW

[14] = molecular target: T14, PE2LS2…2RPG; test: peptide-array ELISA (CYS.S)
T14 sequence (peptide, 2 = Cys(ACM)): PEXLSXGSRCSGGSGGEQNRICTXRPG

[15] = molecular target: T15, PE2LS2…2RP; test: peptide-array ELISA (CYS.S)
T15 sequence (peptide, 2 = Cys(ACM)): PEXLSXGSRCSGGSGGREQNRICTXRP

[16] = molecular target: T16, S2…2RPGW; test: peptide-array ELISA (CYS.S)
T16 sequence (peptide, 2 = Cys(ACM)): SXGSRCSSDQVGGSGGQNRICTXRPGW

[17] = molecular target: T17, S2…2RPG; test: peptide-array ELISA (CYS.S)
T17 sequence (peptide, 2 = Cys(ACM)): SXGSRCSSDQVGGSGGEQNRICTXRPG

[18] = molecular target: T18, S2…2RP; test: peptide-array ELISA (CYS.S)
T18 sequence (peptide, 2 = Cys(ACM)): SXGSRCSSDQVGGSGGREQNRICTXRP

[19] = molecular target: T19, VPE2LS2…2RPGW; test: peptide-array ELISA (CYS.S)
T19 sequence (peptide, 2 = Cys(ACM)): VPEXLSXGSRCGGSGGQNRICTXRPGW

[20] = molecular target: T20, VPE2LS2…2RPG; test: peptide-array ELISA (CYS.S)
T20 sequence (peptide, 2 = Cys(ACM)): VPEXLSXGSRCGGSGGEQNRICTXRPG

[21] = molecular target: T21, VPE2LS2…2RP; test: peptide-array ELISA (CYS.S)
T21 sequence (peptide, 2 = Cys(ACM)): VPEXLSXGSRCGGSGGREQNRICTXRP

[22] = molecular target: T22, …2RPGW; test: peptide-array ELISA (CYS.S)
T22 sequence (peptide, 2 = Cys(ACM)): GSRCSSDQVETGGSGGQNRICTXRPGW

[23] = molecular target: T23, …2RPGW; test: peptide-array ELISA (CYS.S); remark: listed apart in the source
T23 sequence (peptide, 2 = Cys(ACM)): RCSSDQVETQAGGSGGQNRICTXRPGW

[24] = molecular target: T24, …2RPGW; test: peptide-array ELISA (CYS.S); remark: listed apart in the source
T24 sequence (peptide, 2 = Cys(ACM)): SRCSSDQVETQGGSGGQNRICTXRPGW

[25] = molecular target: T25, …2RPG; test: peptide-array ELISA (CYS.S)
T25 sequence (peptide, 2 = Cys(ACM)): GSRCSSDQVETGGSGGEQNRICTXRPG

[26] = molecular target: T26, …2RPG; test: peptide-array ELISA (CYS.S); remark: listed apart in the source
T26 sequence (peptide, 2 = Cys(ACM)): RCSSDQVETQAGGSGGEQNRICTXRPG

[27] = molecular target: T27, …2RPG; test: peptide-array ELISA (CYS.S); remark: listed apart in the source
T27 sequence (peptide, 2 = Cys(ACM)): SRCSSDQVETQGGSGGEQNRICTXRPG

[28] = molecular target: T28, …2RP; test: peptide-array ELISA (CYS.S)
T28 sequence (peptide, 2 = Cys(ACM)): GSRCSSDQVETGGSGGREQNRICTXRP

[29] = molecular target: T29, …2RP; test: peptide-array ELISA (CYS.S); remark: listed apart in the source
T29 sequence (peptide, 2 = Cys(ACM)): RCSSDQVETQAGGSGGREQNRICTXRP

[30] = molecular target: T30, …2RP; test: peptide-array ELISA (CYS.S); remark: listed apart in the source
T30 sequence (peptide, 2 = Cys(ACM)): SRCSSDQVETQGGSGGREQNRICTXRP

[31] = molecular target: T31, …2R; test: peptide-array ELISA (CYS.S)
T31 sequence (peptide, 2 = Cys(ACM)): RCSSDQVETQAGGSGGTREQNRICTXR

[32] = molecular target: T32, …2R; test: peptide-array ELISA (CYS.S); remark: listed apart in the source
T32 sequence (peptide, 2 = Cys(ACM)): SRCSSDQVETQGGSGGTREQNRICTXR

[33] = molecular target: T33, …2…2RPGW; test: peptide-array ELISA (CYS.S)
T33 sequence (peptide, 2 = Cys(ACM)): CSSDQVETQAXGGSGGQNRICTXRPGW

[34] = molecular target: T34, …2…2RPG; test: peptide-array ELISA (CYS.S)
T34 sequence (peptide, 2 = Cys(ACM)): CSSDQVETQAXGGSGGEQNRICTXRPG

[35] = molecular target: T35, …2…2RP; test: peptide-array ELISA (CYS.S)
T35 sequence (peptide, 2 = Cys(ACM)): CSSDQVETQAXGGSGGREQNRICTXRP

[36] = molecular target: T36, …2…2R; test: peptide-array ELISA (CYS.S)
T36 sequence (peptide, 2 = Cys(ACM)): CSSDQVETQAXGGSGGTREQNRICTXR

[37] = molecular target: T37, LS2…2RPGWY2AL; test: peptide-array ELISA (CYS.S) [Continued]
T37 sequence (peptide, 2 = Cys(ACM)): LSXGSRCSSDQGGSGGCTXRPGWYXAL

[38] = molecular target: T38, QEGCRL2…; test: peptide-array ELISA (CYS.S) [Continued]
T38 sequence (peptide, 2 = Cys(ACM)): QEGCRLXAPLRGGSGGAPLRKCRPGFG

[39] = molecular target: T39, …2RPGWY2AL; test: peptide-array ELISA (CYS.S) [Continued]
T39 sequence (peptide, 2 = Cys(ACM)): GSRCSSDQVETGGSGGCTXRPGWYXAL

- Raw luminescence data [1]: 345
- Raw luminescence data [2]: 214
- Raw luminescence data [3]: 262
- Raw luminescence data [4]: 493
- Raw luminescence data [5]: 221
- Raw luminescence data [6]: 228
- Raw luminescence data [7]: 482
- Raw luminescence data [8]: 152
- Raw luminescence data [9]: 323
- Raw luminescence data [10]: 291
- Raw luminescence data [11]: 244
- Raw luminescence data [12]: 261
- Raw luminescence data [13]: 543
- Raw luminescence data [14]: 229
- Raw luminescence data [15]: 291
- Raw luminescence data [16]: 364
- Raw luminescence data [17]: 235
- Raw luminescence data [18]: 247
- Raw luminescence data [19]: 577
- Raw luminescence data [20]: 225
- Raw luminescence data [21]: 318
- Raw luminescence data [22]: 466
- Raw luminescence data [23]: 507
- Raw luminescence data [24]: 402
- Raw luminescence data [25]: 202
- Raw luminescence data [26]: 183
- Raw luminescence data [27]: 222
- Raw luminescence data [28]: 166
- Raw luminescence data [29]: 130
- Raw luminescence data [30]: 157
- Raw luminescence data [31]: 125
- Raw luminescence data [32]: 177
- Raw luminescence data [33]: 493
- Raw luminescence data [34]: 248
- Raw luminescence data [35]: 250
- Raw luminescence data [36]: 179
- Raw luminescence data [37]: 510
- Raw luminescence data [38]: 340
- Raw luminescence data [39]: 464
B1: antagonistic TNFR2 antibody TNFRAB1 (antibody, V domains shown)
VH: EVQLQESGGGLVKPGGSLKLSCAASGFTFSSYVMSWVRQTPEKRLEWVATISSGGSYTYYPDSVKGRFTISRDNAKNTLYLQMSSLRSEDTAMYYCARQRVDGYSSYWYFDVWGAGTAVTVSS
VL: DIVLTQSPAIMSASPGEKVTITCSASSSVYYMYWFQQKPGTSPKLWIYSTSNLASGVPVRFSGSGSGTSYSLTISRMEAEDAATYYCQQRRNYPYTFGGGTKLEIKR
